In patent US20240254222A1 (Bayer, published 2024):

B1: TPP-15374 (antibody, human IgG1, lambda, V domains shown)
VH: EVQLLESGGGLVQPGGSLRLSCAASGFTFSSYEMNWVRQAPGKGLEWVSGISWNSGSIGYADSVKGRFTISRDNSKNTLYLQMNSLRAEDTAVYYCARSGYSSSWFDPDFDYWGQGTLVTVSS
VL: QSVLTQPPSASGTPGQRVTISCTGSSSNIGAGYDVHWYQQLPGTAPKLLIYGNSNRPSGVPDRFSGSKSGTSASLAISGLRSEDEADYYCSSYAGSNPYVVFGGGTKLTVLG
notes: human IgG1; also called IgG1, hit from panning; parental mAb
B2: TPP-15370 (antibody, human IgG1, lambda, V domains shown)
VH: EVQLLESGGGLVQPGGSLRLSCAASGFTFSSYGMHWVRQAPGKGLEWVSAIGTGGDTYYADSVMGRFTISRDNSKNTLYLQMNSLRAEDTAVYYCARRDDYTSRDAFDVWGQGTLVTVSS
VL: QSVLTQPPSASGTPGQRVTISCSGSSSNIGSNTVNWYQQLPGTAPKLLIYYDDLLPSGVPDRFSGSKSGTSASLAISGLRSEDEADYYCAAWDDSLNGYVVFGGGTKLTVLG
notes: as for B1

Assays:
Sema3B (R&D Systems) = biological target: T1, Sema3B (R&D Systems) (Homo sapiens (Human), UniProt Q13214 25-749); experiment: ELISA
T1 sequence: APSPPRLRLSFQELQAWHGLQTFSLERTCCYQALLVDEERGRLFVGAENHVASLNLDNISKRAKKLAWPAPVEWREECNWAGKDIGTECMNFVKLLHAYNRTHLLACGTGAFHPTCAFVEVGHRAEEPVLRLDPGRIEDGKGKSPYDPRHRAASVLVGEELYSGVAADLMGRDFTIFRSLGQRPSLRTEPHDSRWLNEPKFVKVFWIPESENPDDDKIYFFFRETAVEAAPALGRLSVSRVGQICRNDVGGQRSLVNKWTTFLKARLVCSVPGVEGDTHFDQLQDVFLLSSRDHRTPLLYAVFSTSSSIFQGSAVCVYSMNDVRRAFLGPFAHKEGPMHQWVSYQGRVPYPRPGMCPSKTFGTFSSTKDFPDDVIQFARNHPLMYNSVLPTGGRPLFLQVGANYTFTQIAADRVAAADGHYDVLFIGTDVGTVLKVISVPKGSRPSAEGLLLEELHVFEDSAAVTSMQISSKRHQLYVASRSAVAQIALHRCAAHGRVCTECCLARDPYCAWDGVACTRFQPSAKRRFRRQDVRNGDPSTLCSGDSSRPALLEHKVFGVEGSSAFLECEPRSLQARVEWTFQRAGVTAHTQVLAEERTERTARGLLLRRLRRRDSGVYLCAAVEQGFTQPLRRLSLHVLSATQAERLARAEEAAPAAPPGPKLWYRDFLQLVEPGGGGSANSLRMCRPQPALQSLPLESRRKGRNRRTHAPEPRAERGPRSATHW

Sema3E (R&D Systems) = biological target: T2, Sema3E (R&D Systems) (Homo sapiens (Human), UniProt O15041 26-775); experiment: ELISA
T2 sequence: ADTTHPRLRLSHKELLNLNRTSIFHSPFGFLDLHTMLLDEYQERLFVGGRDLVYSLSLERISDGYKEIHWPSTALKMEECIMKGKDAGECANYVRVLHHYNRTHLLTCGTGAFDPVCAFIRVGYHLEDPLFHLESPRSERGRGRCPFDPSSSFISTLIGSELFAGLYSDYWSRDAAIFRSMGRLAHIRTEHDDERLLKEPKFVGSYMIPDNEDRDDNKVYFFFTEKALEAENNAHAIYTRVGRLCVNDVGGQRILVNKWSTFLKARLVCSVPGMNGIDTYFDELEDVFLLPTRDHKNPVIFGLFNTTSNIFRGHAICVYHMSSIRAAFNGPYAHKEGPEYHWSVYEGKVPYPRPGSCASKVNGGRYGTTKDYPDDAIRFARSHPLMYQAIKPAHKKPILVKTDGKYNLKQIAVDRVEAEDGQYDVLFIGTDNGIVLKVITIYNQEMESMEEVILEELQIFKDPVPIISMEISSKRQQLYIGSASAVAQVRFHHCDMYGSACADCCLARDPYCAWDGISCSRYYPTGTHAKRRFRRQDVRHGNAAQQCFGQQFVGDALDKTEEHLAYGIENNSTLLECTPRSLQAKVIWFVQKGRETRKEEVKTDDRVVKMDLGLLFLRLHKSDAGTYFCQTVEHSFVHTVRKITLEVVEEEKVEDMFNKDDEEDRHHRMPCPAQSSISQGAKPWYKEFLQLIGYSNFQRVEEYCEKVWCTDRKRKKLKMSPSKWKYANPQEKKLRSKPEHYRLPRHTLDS

[1] = biological target: T3, Human Semaphorin3A-Fc (R&D Systems), TPP-13211 (human); experiment: SPR, captured IgG1, Sema3A-Fc analyte
T3 construct: R&D Systems 1250-S3; also called recombinant human Sema3A-Fc chimera
T3 sequence (chain, as listed by the source limits assumed): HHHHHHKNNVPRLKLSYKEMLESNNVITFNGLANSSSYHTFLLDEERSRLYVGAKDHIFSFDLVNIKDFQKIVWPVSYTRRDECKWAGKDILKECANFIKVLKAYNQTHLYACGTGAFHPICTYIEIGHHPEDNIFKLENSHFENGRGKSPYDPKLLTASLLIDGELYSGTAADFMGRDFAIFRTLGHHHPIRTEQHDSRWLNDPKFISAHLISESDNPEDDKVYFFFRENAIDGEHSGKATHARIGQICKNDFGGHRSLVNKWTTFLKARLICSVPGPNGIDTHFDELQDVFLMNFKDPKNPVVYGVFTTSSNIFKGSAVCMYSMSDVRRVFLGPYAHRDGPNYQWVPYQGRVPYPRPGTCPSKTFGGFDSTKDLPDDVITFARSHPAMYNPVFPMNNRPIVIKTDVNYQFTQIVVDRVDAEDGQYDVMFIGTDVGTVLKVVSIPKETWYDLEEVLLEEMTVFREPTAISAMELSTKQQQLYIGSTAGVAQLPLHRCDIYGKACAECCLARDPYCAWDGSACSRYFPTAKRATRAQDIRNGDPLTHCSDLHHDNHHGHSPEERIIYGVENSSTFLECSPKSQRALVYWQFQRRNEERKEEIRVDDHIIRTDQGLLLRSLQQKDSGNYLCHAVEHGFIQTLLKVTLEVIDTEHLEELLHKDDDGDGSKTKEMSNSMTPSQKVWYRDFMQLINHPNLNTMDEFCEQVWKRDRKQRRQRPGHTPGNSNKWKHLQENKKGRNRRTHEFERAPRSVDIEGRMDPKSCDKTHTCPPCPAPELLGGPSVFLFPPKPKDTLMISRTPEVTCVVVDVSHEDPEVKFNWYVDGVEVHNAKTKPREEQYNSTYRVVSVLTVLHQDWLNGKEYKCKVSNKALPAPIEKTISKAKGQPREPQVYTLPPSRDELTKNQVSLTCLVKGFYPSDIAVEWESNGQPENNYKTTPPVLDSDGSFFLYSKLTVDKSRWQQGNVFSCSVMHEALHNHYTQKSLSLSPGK
Experimental: (§1) To assess the binding kinetics and affinity of anti-Sema3A antibodies as well as their species cross-reactivity profile, binding assays were conducted using surface plasmon resonance (SPR). Binding assays were performed on a Biacore T200 instrument or on a Biacore 8K+ instrument (Cytiva) at 25° C. using assay buffer HBS P+, 300 mM NaCl, 0.75 mM CaCl₂, 2.5 mM MgCl₂, 1 mg/ml BSA, 0.05% NaN₃. Antibodies were captured either via anti-human Fc IgGs (“Human antibody capture kit”, Order No. BR100839, Cytiva) or in case of Fc-tagged analytes by anti-human Fab IgGs (“Human Fab capture kit”, Order No. 28958325, Cytiva) covalently amine coupled to a Series S CM5 sensor chip (Cytiva). The amine coupling was carried out according to the manufacturer's instructions using 1-ethyl-3-(3-dimethylaminopropyl) carbodiimide hydrochloride (EDC), N-hydroxysuccinimide (NHS) and ethanolamine HCl, pH 8.5 (“Amine Coupling Kit” BR-1000-50, Cytiva.). For phage display hits Fc-tagged human and mouse Sema3A was used as analytes in a concentration range from 1.56-200 nM. Human, mouse, cynomolgus, rat, dog and pig monovalent Sema3A domain were used as analytes in a concentration series from […] in multi cycle kinetics mode or in 100 nM for binding analysis only. The sensor surface was regenerated with glycine pH 2.0 after each antigen injection. Obtained sensorgrams were double referenced (subtraction of reference flow cell signal and buffer injection) and were fitted to a 1:1 Langmuir binding model to derive kinetic data using the Biacore T200 Evaluation software.

[2] = biological target: T4, Mouse Semaphorin3A-Fc (R&D Systems), TPP-13357 (mouse, UniProt O08665 21-747); experiment: SPR, captured IgG1, Sema3A-Fc analyte
T4 construct: range 21-747; R&D Systems 5926-S3; also called mouse Sema3A-Fc
T4 sequence (looked up): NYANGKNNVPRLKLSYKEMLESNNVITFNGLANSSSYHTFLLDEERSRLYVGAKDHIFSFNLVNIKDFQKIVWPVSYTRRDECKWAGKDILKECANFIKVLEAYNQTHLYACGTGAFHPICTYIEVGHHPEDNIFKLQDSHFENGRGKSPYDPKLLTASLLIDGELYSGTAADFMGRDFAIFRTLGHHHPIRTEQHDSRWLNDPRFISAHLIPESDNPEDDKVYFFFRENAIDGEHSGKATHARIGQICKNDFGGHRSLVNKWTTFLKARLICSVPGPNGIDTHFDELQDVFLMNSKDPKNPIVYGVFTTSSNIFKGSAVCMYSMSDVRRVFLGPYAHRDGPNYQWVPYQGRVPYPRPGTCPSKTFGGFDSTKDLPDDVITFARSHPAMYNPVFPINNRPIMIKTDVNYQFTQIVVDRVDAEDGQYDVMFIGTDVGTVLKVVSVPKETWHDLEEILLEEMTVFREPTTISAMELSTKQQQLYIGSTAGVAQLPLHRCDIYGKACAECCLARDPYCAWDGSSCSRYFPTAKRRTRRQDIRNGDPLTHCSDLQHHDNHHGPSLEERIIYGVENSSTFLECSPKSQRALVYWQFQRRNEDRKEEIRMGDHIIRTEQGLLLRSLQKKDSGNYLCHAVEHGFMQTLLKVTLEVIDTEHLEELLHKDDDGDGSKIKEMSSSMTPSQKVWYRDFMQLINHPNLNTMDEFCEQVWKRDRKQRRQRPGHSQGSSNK
Experimental: as §1

| Binder | binding result (Sema3B (R&D Systems)) | binding result (Sema3E (R&D Systems)) | Kd [1] [nM] | Kd [2] [nM] |
| --- | --- | --- | --- | --- |
| B1 | no binding | no binding | 18 | 18 |
| B2 | no binding | no binding | 2.8 | 3.2 |
